Key:
[1] = biological target: cynomolgus TIM-3 ECD Fc fusion (made in-house) (cynomolgus monkey (Macaca fascicularis); human); assay: SPR (IBIS MX96), TIM-3 ECD-Fc captured, Fab injected 1-100 nM, 1:1 fit
[2] = biological target: cynomolgus TIM-3 Fc fusion antigen (Sino Biologicals) (cynomolgus monkey); assay: ELISA, TIM-3 Fc fusion coated at 1 ug/ml, antibody titrated from 1000 nM
[3] = biological target: cynomolgus TIM-3 Fc fusion antigen (Sino Biologicals) (cynomolgus monkey); assay: ELISA, EC50 on cynomolgus TIM-3 against EC50 on human TIM-3

cynomolgus TIM-3 Fc fusion antigen (Sino Biologicals) (cynomolgus monkey), sequence (chain, as listed by the source limits assumed): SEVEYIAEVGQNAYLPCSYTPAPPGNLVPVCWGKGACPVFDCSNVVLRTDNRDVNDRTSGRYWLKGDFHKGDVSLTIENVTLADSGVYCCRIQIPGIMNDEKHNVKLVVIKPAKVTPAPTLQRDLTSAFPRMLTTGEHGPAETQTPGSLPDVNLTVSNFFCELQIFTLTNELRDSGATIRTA
cynomolgus TIM-3 ECD Fc fusion (made in-house) (cynomolgus monkey (Macaca fascicularis); human), sequence (chain, as listed by the source limits assumed): as above

Work on “Fab fragment of 18564 ABTIM3 (reference analogue)” yielded a Kd [1] of 0.025 µM.

B1: antibody 19416 (antibody, V domains shown)
VH: QVQLVESGPGLVKPSQTLSLTCTVSGGSINSGGYYWSWIRQHPGKGLEWIGYIYYSGSIYYNPSLRSRLTISVDTSKNQFSLKLSSVTAADTAVYYCATPYYYGSGSYGDYWGQGTLVTVSS
VL: DIQMTQSPATLSLSPGERATLSCRASQSVNNYLAWYQQKPGQAPRLLIYDASNRATGIPARFSGSGSGTDFTLTISSLEPEDFAVYYCQQRSNWPITFGQGTRLEIK
In the case of B1, the EC50 [2] is reported as 0.00942 µM and the Ratio Cynomolgus/Human EC50 [3] is reported as 47.

From patent publication US20230105714A1
